# Test results taken from US20120058906A1 (published 2012).
# B1: Fab VH5-51_IGHD5-18*01>3_IGHJ4*01 & V3-4_IGLJ1*01 (Fab, V domains shown)
# VH: EVQLVQSGAEVKKPGESLKISCKGSGYSFTSYWIGWVRQMPGKGLEWMGIIYPGDSDTRYSPSFQGQVTISADKSISTAYLQWSSLKASDTAMYYCARRGYSYGYDYFDYWGQGTLVTVSS
# VL: QTVVTQEPSFSVSPGGTVTLTCGLSSGSVSTSYYPSWYQQTPGQAPRTLIYSTNTRSSGVPDRFSGSILGNKAALTITGAQADDESDYYCVLYMGSGISYVFGTGTKVTVL
# notes: Expressed in E. coli as Fab: heavy chain with CH1 plus Flag and His tags from Plasmid A, lambda light chain constant region from Plasmid E; also called Fab No. 2
# B2: Fab VH1-46_IGHD2-15*01_IGHJ2*01 & L12_IGKJ1*01 (Fab, V domains shown)
# VH: QVQLVQSGAEVKKPGASVKVSCKASGYTFTSYYMHWVRQAPGQGLEWMGIINPSGGSTSYAQKFQGRVTMTRDTSTSTVYMELSSLRSEDTAVYYCAREGYCSGGSCYSYWYFDLWGRGTLVTVSS
# VL: not shown
# Columns and labels:
# [1] = target: T1, rHuman ErbB2/Fc Chimera, CF (R&D Systems Cat#1129-ER) (human, UniProt P04626 23-652); assay: MSD ECL multi-spot, Fab 2.38 uM, blank 526
# T1 construct: Bought Fc chimera; also called HER2/neu; Fc part of the bought chimera not given
# [2] = target: T2, rHuman IGF-1 sR (insulin-like growth factor-1 soluble receptor), CF (R&D Systems Cat#391-GR) (human, UniProt P08069 31-932); assay: MSD ECL multi-spot, Fab 2.38 uM, blank 526
# T2 construct: Bought soluble receptor; also called IGF-R1
# [3] = target: T3, Recombinant Human DLL4 (R&D Systems Cat#1506-D4/CF) (human, UniProt Q9NR61 27-524); assay: MSD ECL multi-spot, Fab 2.38 uM, blank 526
# T3 construct: Bought recombinant protein; also called rHuman DLL4; delta-like protein 4
# [4] = target: T4, rHuman Erythropoietin R/Fc Chimera, CF (R&D Systems Cat#963-ER) (human, UniProt P19235 25-250); assay: MSD ECL multi-spot, Fab 2.38 uM, blank 526
# T4 construct: Bought Fc chimera; also called EPO R/Fc; EPOR; Fc part of the bought chimera not given
# T4 sequence: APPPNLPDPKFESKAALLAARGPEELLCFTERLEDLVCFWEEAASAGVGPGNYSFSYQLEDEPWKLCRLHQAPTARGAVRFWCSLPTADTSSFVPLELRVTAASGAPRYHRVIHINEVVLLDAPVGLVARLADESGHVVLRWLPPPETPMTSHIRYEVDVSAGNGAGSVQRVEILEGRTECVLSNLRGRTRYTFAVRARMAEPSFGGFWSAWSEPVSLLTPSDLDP
# [5] = target: T5, rHuman EGF R/Fc Chimera, CF (R&D Systems Cat#344-ER) (human, UniProt P00533 25-645); assay: MSD ECL multi-spot, Fab 2.38 uM, blank 526
# T5 construct: Bought Fc chimera; Fc part of the bought chimera not given
# [6] = target: T6, rHuman CD44/Fc Chimera, CF (R&D Systems Cat#3660-CD) (human, UniProt P16070 21-220); assay: MSD ECL multi-spot, Fab 2.38 uM, blank 526
# T6 construct: Bought Fc chimera; Fc part of the bought chimera not given
# [7] = target: T7, rHuman Notch-1/Fc Chimera, CF (R&D Systems Cat#3647-TK) (human, UniProt P46531 19-526); assay: MSD ECL multi-spot, Fab 2.38 uM, blank 526
# T7 construct: Bought Fc chimera; Fc part of the bought chimera not given
# [8] = target: T8, rHuman CD44/Fc Chimera, CF (R&D Systems Cat#3660-CD) (human, UniProt P16070 21-220); assay: MSD ECL multi-spot plate; Fab 4.375 nM; blank spot 305
# T8 construct: Fc part of the bought chimera not given
# [9] = target: T9, rHuman HGF R/c-MET/Fc Chimera, CF (R&D Systems Cat#358-MT/CF) (human, UniProt P08581 25-932); assay: as above
# T9 construct: also called HGF R/Fc; hepatocyte growth factor receptor; Fc part of the bought chimera not given
# [10] = target: T10, Recombinant Human DLL4 (R&D Systems Cat#1506-D4/CF) (human, UniProt Q9NR61 27-524); assay: as above
# T10 construct: also called delta-like protein 4
# [11] = target: T11, rHuman ErbB2/Fc Chimera, CF (R&D Systems Cat#1129-ER) (human, UniProt P04626 23-652); assay: as above
# T11 construct: also called HER2/neu; human epidermal growth factor 2 receptor; Fc part of the bought chimera not given
# [12] = target: T12, rHuman Notch-1/Fc Chimera, CF (R&D Systems Cat#3647-TK) (human, UniProt P46531 19-526); assay: as above
# T12 construct: Fc part of the bought chimera not given
# [13] = target: T13, rHuman IGF-1 sR, (IGF-1 sR), CF (R&D Systems Cat#391-GR) (human, UniProt P08069 31-932); assay: as above
# T13 construct: also called insulin-like growth factor-1 soluble receptor; IGF-R1
# [14] = target: T8, rHuman CD44/Fc Chimera, CF (R&D Systems …); assay: MSD ECL multi-spot plate; Fab 70 nM; blank spot 635
# [15] = target: T9, rHuman HGF R/c-MET/Fc Chimera, CF (R&D …); assay: as above
# [16] = target: T10, Recombinant Human DLL4 (R&D Systems …); assay: as above
# [17] = target: T11, rHuman ErbB2/Fc Chimera, CF (R&D …); assay: as above
# [18] = target: T12, rHuman Notch-1/Fc Chimera, CF (R&D …); assay: as above
# [19] = target: T13, rHuman IGF-1 sR, (IGF-1 sR), CF (R&D …); assay: as above
# [20] = target: T8, rHuman CD44/Fc Chimera, CF (R&D Systems …); assay: MSD ECL multi-spot plate; Fab 280 nM; blank spot 1691
# [21] = target: T9, rHuman HGF R/c-MET/Fc Chimera, CF (R&D …); assay: as above
# [22] = target: T10, Recombinant Human DLL4 (R&D Systems …); assay: as above
# [23] = target: T11, rHuman ErbB2/Fc Chimera, CF (R&D …); assay: as above
# [24] = target: T12, rHuman Notch-1/Fc Chimera, CF (R&D …); assay: as above
# [25] = target: T13, rHuman IGF-1 sR, (IGF-1 sR), CF (R&D …); assay: as above
# [26] = target: T9, rHuman HGF R/c-MET/Fc Chimera, CF (R&D …); assay: MSD ECL multi-spot plate; Fab 17.5 nM; blank spot 304
# [27] = target: T10, Recombinant Human DLL4 (R&D Systems …); assay: as above
# [28] = target: T12, rHuman Notch-1/Fc Chimera, CF (R&D …); assay: as above
# [29] = target: T13, rHuman IGF-1 sR, (IGF-1 sR), CF (R&D …); assay: as above
# 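Further: blank spot per well as comparator with Hit at signal to blank ratio of 4 or more.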
binder,measurement,setting,value
B1,ECL signal,[1],594
same,ECL signal,[2],691
same,ECL signal,[3],12200
same,ECL signal,[4],834
same,ECL signal,[5],681
same,ECL signal,[6],666
same,ECL signal,[7],636
B2,ECL signal,[8],424 ECL signal
same,ECL signal,[9],193 ECL signal
same,ECL signal,[10],558 ECL signal
same,ECL signal,[11],384 ECL signal
same,ECL signal,[12],480 ECL signal
same,ECL signal,[13],369 ECL signal
same,ECL signal,[14],1370 ECL signal
same,ECL signal,[15],1290 ECL signal
same,ECL signal,[16],2750 ECL signal
same,ECL signal,[17],1360 ECL signal
same,ECL signal,[18],1490 ECL signal
same,ECL signal,[19],1320 ECL signal
same,ECL signal,[20],4070 ECL signal
same,ECL signal,[21],3560 ECL signal
same,ECL signal,[22],8110 ECL signal
same,ECL signal,[23],3950 ECL signal
same,ECL signal,[24],4380 ECL signal
same,ECL signal,[25],3530 ECL signal
same,ECL signal,[26],565 ECL signal
same,ECL signal,[27],1220 ECL signal
same,ECL signal,[28],680 ECL signal
same,ECL signal,[29],626 ECL signal
